The target of one data set is human TRF2^TRFH (human) (UniProt Q15554). The experiment in a line: flow cytometry protein interaction assay.
The target in another data set is T1, GST-TRF1^TRFH (human, UniProt P54274 62-265).
T1 sequence: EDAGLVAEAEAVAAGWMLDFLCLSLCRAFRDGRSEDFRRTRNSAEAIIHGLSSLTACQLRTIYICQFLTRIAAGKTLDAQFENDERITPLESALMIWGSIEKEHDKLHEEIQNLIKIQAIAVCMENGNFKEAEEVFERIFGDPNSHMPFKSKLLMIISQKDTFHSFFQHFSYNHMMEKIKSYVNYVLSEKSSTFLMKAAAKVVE
The experiment in a line: pull-down.

The data set “crystal structure” concerns the molecule itself. The data set is described as follows: crystal structure.
Data set [1] has as its target T2, MBP-tagged TERB1^TRFB – TERB2^1-107 (human, UniProt Q8NA31;Q8NHR7).
T2 sequence 1: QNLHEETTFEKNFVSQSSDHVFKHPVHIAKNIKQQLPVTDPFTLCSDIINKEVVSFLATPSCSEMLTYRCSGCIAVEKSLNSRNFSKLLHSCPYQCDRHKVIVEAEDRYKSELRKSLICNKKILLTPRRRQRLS
T2 sequence 2: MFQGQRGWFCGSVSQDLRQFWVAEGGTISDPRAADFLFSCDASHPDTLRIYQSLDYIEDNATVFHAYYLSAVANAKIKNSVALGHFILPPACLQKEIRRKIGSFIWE
The data set is described as follows: pull-down.

Sequence of human TRF2^TRFH (human) (Q15554 whole entry): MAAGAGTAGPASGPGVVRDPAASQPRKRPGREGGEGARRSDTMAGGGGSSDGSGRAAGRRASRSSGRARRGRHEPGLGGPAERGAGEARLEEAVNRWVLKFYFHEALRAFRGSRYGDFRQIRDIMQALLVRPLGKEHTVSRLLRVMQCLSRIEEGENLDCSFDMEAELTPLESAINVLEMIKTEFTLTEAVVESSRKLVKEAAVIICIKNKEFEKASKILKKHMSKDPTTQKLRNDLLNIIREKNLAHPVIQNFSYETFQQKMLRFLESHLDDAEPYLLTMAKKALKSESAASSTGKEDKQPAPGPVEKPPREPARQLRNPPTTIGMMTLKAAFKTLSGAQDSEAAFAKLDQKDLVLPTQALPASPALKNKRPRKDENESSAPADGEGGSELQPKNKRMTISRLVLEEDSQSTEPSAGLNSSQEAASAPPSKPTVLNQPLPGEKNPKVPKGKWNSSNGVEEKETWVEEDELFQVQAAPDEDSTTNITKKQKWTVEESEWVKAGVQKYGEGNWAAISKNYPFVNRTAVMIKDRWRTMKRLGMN

Molecule “His-Smt3-TERB1^TBM WT (from UniProt Q8NA31 643-656) (peptide)” returned a relative IC50 (normalized to TERB1^TBM WT) in the data set with human TRF2^TRFH (human) of 1.

In the data set with human TRF2^TRFH (human), “His-Smt3-TERB1^TBM T648A (from UniProt Q8NA31 643-656) (peptide)” gave a relative IC50 (normalized to TERB1^TBM WT) of 0.4.

“His-Smt3-TERB1^TBM R652E (from UniProt Q8NA31 643-656) (peptide)” came in with a relative IC50 (normalized to TERB1^TBM WT) with human TRF2^TRFH (human) of 1.05.

In the data set with human TRF2^TRFH (human), “His-Smt3-TERB1^TBM I645E (from UniProt Q8NA31 643-656) (peptide)” showed a relative IC50 (normalized to TERB1^TBM WT) of 2.25.

Molecule “His-Smt3-TERB1^TBM I645F (from UniProt Q8NA31 643-656) (peptide)” had a relative IC50 (normalized to TERB1^TBM WT) in the data set with human TRF2^TRFH (human) of 2.6.

As to KKILLTPRRRQRLS [His-Smt3-TERB1^TBM WT], the binding result in the data set with GST-TRF1^TRFH was “binds”.

As to KKFLLTPRRRQRLS [His-Smt3-TERB1^TBM I645F], in the data set with GST-TRF1^TRFH, the binding result is given as “binds”.

B1: TERB1^TRFB - TERB2^1-107 complex WT (complex)
chain 1: QNLHEETTFEKNFVSQSSDHVFKHPVHIAKNIKQQLPVTDPFTLCSDIINKEVVSFLATPSCSEMLTYRCSGCIAVEKSLNSRNFSKLLHSCPYQCDRHKVIVEAEDRYKSELRKSLICNKKILLTPRRRQRLS
chain 2: MFQGQRGWFCGSVSQDLRQFWVAEGGTISDPRAADFLFSCDASHPDTLRIYQSLDYIEDNATVFHAYYLSAVANAKIKNSVALGHFILPPACLQKEIRRKIGSFIWE
B1: in the data set with human TRF2^TRFH (human), the relative IC50 (normalized to TERB1^TRFB - TERB2^1-107 WT) amounted to 1.

B2: TERB1^TRFB - TERB2^1-107 I645E (complex)
chain 1: QNLHEETTFEKNFVSQSSDHVFKHPVHIAKNIKQQLPVTDPFTLCSDIINKEVVSFLATPSCSEMLTYRCSGCIAVEKSLNSRNFSKLLHSCPYQCDRHKVIVEAEDRYKSELRKSLICNKKELLTPRRRQRLS
chain 2: MFQGQRGWFCGSVSQDLRQFWVAEGGTISDPRAADFLFSCDASHPDTLRIYQSLDYIEDNATVFHAYYLSAVANAKIKNSVALGHFILPPACLQKEIRRKIGSFIWE
B2: in the data set with human TRF2^TRFH (human), the relative IC50 (normalized to TERB1^TRFB - TERB2^1-107 WT) is 0.4.

B3: TERB1^TRFB - TERB2^1-107 I645F (complex)
chain 1: QNLHEETTFEKNFVSQSSDHVFKHPVHIAKNIKQQLPVTDPFTLCSDIINKEVVSFLATPSCSEMLTYRCSGCIAVEKSLNSRNFSKLLHSCPYQCDRHKVIVEAEDRYKSELRKSLICNKKFLLTPRRRQRLS
chain 2: MFQGQRGWFCGSVSQDLRQFWVAEGGTISDPRAADFLFSCDASHPDTLRIYQSLDYIEDNATVFHAYYLSAVANAKIKNSVALGHFILPPACLQKEIRRKIGSFIWE
With B3, in the data set with human TRF2^TRFH (human), the relative IC50 (normalized to TERB1^TRFB - TERB2^1-107 WT) was 0.8.

B4: human TRF1^TRFH (TRF homology domain of TRF1, aa 62-265) (domain or fragment)
chain: EDAGLVAEAEAVAAGWMLDFLCLSLCRAFRDGRSEDFRRTRNSAEAIIHGLSSLTACQLRTIYICQFLTRIAAGKTLDAQFENDERITPLESALMIWGSIEKEHDKLHEEIQNLIKIQAIAVCMENGNFKEAEEVFERIFGDPNSHMPFKSKLLMIISQKDTFHSFFQHFSYNHMMEKIKSYVNYVLSEKSSTFLMKAAAKVVE
modifications: biotin (biotin maleimide) on cysteines in the flow-cytometry bead assays; unlabelled in the pull-downs and the crystal
Turning to B4, the “stoichiometry N” value in the data set “crystal structure” amounted to 2. Moreover, the binding result in data set [1] is on record as “binds”.

Values taken from PMC5755706 (Nature structural & molecular biology, 2017).
